Source: PMC9770967, “Native holdup (nHU) to measure binding affinities from cell extracts” (Science Advances, 2022)

How the values were obtained:
Format in all cases: binding, human
SNX27_PDZ = test: nHU-MS, SNX27_PDZ bait, total Jurkat extracts, series 2 (Exploris MS); settings: Jurkat, series 2, n = 3
Text: (§1) To further establish the repeatability and robustness of the nHU-MS assay, we repeated the experiments using a different mass spectrometer and six different PDZ domain baits taken from SCRIB (PDZ_1 and PDZ_2), discs large MAGUK scaffold protein 1 (DLG1, PDZ_1, and PDZ_2), Tax1 binding protein 3 (TAX1BP3), and SNX27 (fig. S3B and table S1). […] Of the studied baits, the PDZ domain of SNX27 turned out to be the most promiscuous with 103 statistically significant interaction partners (while 180 SNX27 binding partners were identified in total on the basis of the three independent nHU-MS experiments).
(§2) For saturating streptavidin resin with biotinylated peptides or biotin, 50 μl of streptavidin resin was mixed with biotin or peptide at 40 to 60 μM concentration in 6 to 6.5 resin volume for 60 min. To saturate streptavidin resin with biotinylated proteins, 50 μl of streptavidin resin (Streptavidin Sepharose High Performance, Cytiva) was mixed with biotinylated MBP or MBP-PDZ at 40 to 50 μM concentration in 20× resin volume for 60 min. After saturation, resins were washed a single time [10 resin volume, holdup buffer: 50 mM tris (pH 7.5), 300 mM NaCl, and 1 mM TCEP, 0.22-μm filtered] and were depleted with biotin (10 resin volume, 10 min, holdup buffer supplemented with 100 μM biotin). Last, resins were washed two times (10 resin volume, holdup buffer).
(§3) For single-point nHU experiments carried out at ~10 μM bait concentration, 50 μl of saturated streptavidin resin was mixed with 200 μl of cell lysate (2 mg/ml). Titration experiments were carried out by mixing control and bait-saturated resin and keeping the total resin volume constant; e.g., ~5 μM bait concentration can be achieved by mixing 25 μl of bait-saturated streptavidin resin with 25 μl of control resin and 200 μl of cell lysate (2 mg/ml). Control and bait-saturated resins were prepared in larger amounts, and a serial dilution was prepared with these presaturated resins to achieve different resin ratios.
(§4) Unless specified elswhere, the nHU mixture was incubated at 4°C for 2 hours. After the incubation ended, the resin was separated from the supernatant by a brief centrifugation (15 s, 2000 g). Then, half of the supernatant was removed by pipetting without any delay to avoid any resin contamination; e.g., 100 μl of supernatant is collected if 200 μl of cell lysate was used as analyte. Alternatively, the supernatant can be centrifuged an additional time to clarify it further, removing any possible resin contamination. In principle, the separation of the supernatant should be as fast as possible since any delay can perturb the equilibrium. […] Alternatively, the resin can be separated from the supernatant using filter plates (e.g., various products of Millipore, Burlington, MA) or spin columns (e.g., Pierce spin cups—cellulose acetate filter from Thermo Fisher Scientific, Waltham, MA) to achieve faster separation.
(§5) The nHU samples were precipitated with trichloroacetic acid (TCA) 20% overnight at 4°C and centrifuged at 14,000 rpm for 10 min at 4°C. The protein pellets were washed twice with 1 ml of cold acetone and air-dried. […]
(§6) Samples were analyzed using an Ultimate 3000 nano-RSLC coupled in line via a nano-electrospray ionization source, with an LTQ-Orbitrap ELITE mass spectrometer (Thermo Fisher Scientific, San Jose, CA) or with the Orbitrap Exploris 480 mass spectrometer (Thermo Fisher Scientific, Bremen, Germany) equipped with a high field asymmetric ion mobility spectrometry (FAIMS) module. […]

TX1BP3_PDZ = test: nHU-MS, TX1BP3_PDZ (TAX1BP3) bait, total Jurkat extracts (Exploris MS); settings: nHU-MS, total Jurkat extract
Text: as §1, §2, §3
Unless specified elswhere, the nHU mixture was incubated at 4°C for 2 hours. After the incubation ended, the resin was separated from the supernatant by a brief centrifugation (15 s, 2000 g). Then, half of the supernatant was removed by pipetting without any delay to avoid any resin contamination; e.g., 100 μl of supernatant is collected if 200 μl of cell lysate was used as analyte. […]
as §6

SCRIB_PDZ_1 = test: nHU-MS, SCRIB_PDZ_1 bait, total Jurkat extracts (Exploris MS); settings: for pKapp (nHU-MS): SCRIB_PDZ_1&Jurkat (Exploris)
Text: as §1, §2, §3, §4
The nHU samples were precipitated with trichloroacetic acid (TCA) 20% overnight at 4°C and centrifuged at 14,000 rpm for 10 min at 4°C. The protein pellets were washed twice with 1 ml of cold acetone and air-dried. The protein extracts were solubilized in 8 M urea, reduced with 5 mM TCEP for 30 min, and alkylated with 10 mM iodoacetamide for 30 min in the dark. Double digestion was performed at 37°C with 500 ng of endoproteinase Lys-C (Wako, Richmond, USA) for 4 hours, followed by fourfold dilution and an overnight digestion with 500 ng of trypsin (Promega, Charbonnieres les Bains, France). Peptide mixtures were then desalted on a C18 spin-column and dried on a speed vacuum.
as §6

SCRIB_PDZ_2 = test: nHU-MS, SCRIB_PDZ_2 bait, total Jurkat extracts (Exploris MS); settings: for pKapp (nHU-MS): SCRIB_PDZ_2&Jurkat (Exploris)
Text: as §1, §2, §3, §4, §5, §6

DLG1_PDZ_1 = test: nHU-MS, DLG1_PDZ_1 bait, total Jurkat extracts (Exploris MS)
Text: as §1, §2
(§7) For single-point nHU experiments carried out at ~10 μM bait concentration, 50 μl of saturated streptavidin resin was mixed with 200 μl of cell lysate (2 mg/ml). […]
as §6

DLG1_PDZ_2 = test: nHU-MS, DLG1_PDZ_2 bait, total Jurkat extracts (Exploris MS); settings: Jurkat extract
Text: as §1, §2, §7, §6

B1: NBDY: Negative regulator of P-body association (protein, UniProt A0A0U1RRE5 1-68, looked up)
Negative regulator of P-body …: MGDQPCASGRSTLPPGNAREAKPPKKRCLLAPRWDYPEGTPNGGSTTLPSAPPPASAGLKSHPPPPEK
BI (SNX27_PDZ): 0.08384
Difference log2 (SNX27_PDZ): -0.1263
Ratio SNX27/MBP (SNX27_PDZ): 0.9162
pKd (SNX27_PDZ; apparent, not filtered for significance): 3.962
BI (TX1BP3_PDZ; TX1BP3_PDZ bait vs MBP): 0.0117
pKd (TX1BP3_PDZ; TX1BP3_PDZ bait, not filtered for significance (pKdsign N/D)): 3.0735
Difference log2 (TX1BP3_PDZ; TX1BP3_PDZ vs MBP): -0.01698
Ratio TX1BP3/MBP (TX1BP3_PDZ; TX1BP3_PDZ): 0.9883
Ratio SCRIB_1/MBP (SCRIB_PDZ_1; nHU-MS, SCRIB_PDZ_1, total Jurkat extract): 1.029
BI (SCRIB_PDZ_1; nHU-MS, SCRIB_PDZ_1 bait vs MBP, total Jurkat extract): -0.02908
Difference log2 (SCRIB_PDZ_1; nHU-MS, SCRIB_PDZ_1 vs MBP, total Jurkat extract): 0.04136
Ratio SCRIB_2/MBP (SCRIB_PDZ_2; nHU-MS, SCRIB_PDZ_2, total Jurkat extract): 1.014
BI (SCRIB_PDZ_2; nHU-MS, SCRIB_PDZ_2 bait vs MBP, total Jurkat extract): -0.01381
Difference log2 (SCRIB_PDZ_2; nHU-MS, SCRIB_PDZ_2 vs MBP, total Jurkat extract): 0.01978
Ratio DLG1_1/MBP (DLG1_PDZ_1; DLG1_PDZ_1, total Jurkat extract): 1.036
BI (DLG1_PDZ_1; DLG1_PDZ_1 bait vs MBP, total Jurkat extract): -0.03605
Difference log2 (DLG1_PDZ_1; DLG1_PDZ_1 vs MBP, total Jurkat extract): 0.0511
Difference log2 (DLG1_PDZ_2; DLG1_PDZ_2 bait vs MBP): 0.1631
Ratio DLG1_2/MBP (DLG1_PDZ_2; DLG1_PDZ_2 bait vs MBP): 1.12
BI (DLG1_PDZ_2; DLG1_PDZ_2 bait): -0.1197

B2: EWSR1 (protein, UniProt Q01844 1-656, looked up)
RNA-binding protein EWS: MASTDYSTYSQAAAQQGYSAYTAQPTQGYAQTTQAYGQQSYGTYGQPTDVSYTQAQTTATYGQTAYATSYGQPPTGYTTPTAPQAYSQPVQGYGTGAYDTTTATVTTTQASYAAQSAYGTQPAYPAYGQQPAATAPTRPQDGNKPTETSQPQSSTGGYNQPSLGYGQSNYSYPQVPGSYPMQPVTAPPSYPPTSYSSTQPTSYDQSSYSQQNTYGQPSSYGQQSSYGQQSSYGQQPPTSYPPQTGSYSQAPSQYSQQSSSYGQQSSFRQDHPSSMGVYGQESGGFSGPGENRSMSGPDNRGRGRGGFDRGGMSRGGRGGGRGGMGSAGERGGFNKPGGPMDEGPDLDLGPPVDPDEDSDNSAIYVQGLNDSVTLDDLADFFKQCGVVKMNKRTGQPMIHIYLDKETGKPKGDATVSYEDPPTAKAAVEWFDGKDFQGSKLKVSLARKKPPMNSMRGGLPPREGRGMPPPLRGGPGGPGGPGGPMGRMGGRGGDRGGFPPRGPRGSRGNPSGGGNVQHRAGDWQCPNPGCGNQNFAWRTECNQCKAPKPEGFLPPPFPPPGGDRGRGGPGGMRGGRGGLMDRGGPGGMFRGGRGGDRGGFRGGRGMDRGGFGGGRRGGPGGPPGPLMEQMGGRRGGRGGPGKMDKGEHRQERRDRPY
pKapp (nHU-MS) (SCRIB_PDZ_1): 4.689
pKapp (nHU-MS) (SCRIB_PDZ_2): 4.691

B3: FUS (protein, UniProt P35637 1-526, looked up)
RNA-binding protein FUS: MASNDYTQQATQSYGAYPTQPGQGYSQQSSQPYGQQSYSGYSQSTDTSGYGQSSYSSYGQSQNTGYGTQSTPQGYGSTGGYGSSQSSQSSYGQQSSYPGYGQQPAPSSTSGSYGSSSQSSSYGQPQSGSYSQQPSYGGQQQSYGQQQSYNPPQGYGQQNQYNSSSGGGGGGGGGGNYGQDQSSMSSGGGSGGGYGNQDQSGGGGSGGYGQQDRGGRGRGGSGGGGGGGGGGYNRSSGGYEPRGRGGGRGGRGGMGGSDRGGFNKFGGPRDQGSRHDSEQDNSDNNTIFVQGLGENVTIESVADYFKQIGIIKTNKKTGQPMINLYTDRETGKLKGEATVSFDDPPSAKAAIDWFDGKEFSGNPIKVSFATRRADFNRGGGNGRGGRGRGGPMGRGGYGGGGSGGGGRGGFPSGGGGGGGQQRAGDWKCPNPTCENMNFSWRNECNQCKAPKPDGPGGGPGGSHMGGNYGDDRRGGRGGYDRGGYRGRGGDRGGFRGGRGGGDRGGFGPGKMDSRGEHRQDRRERPY
pKapp (nHU-MS) (SCRIB_PDZ_1): 4.571
pKapp (nHU-MS) (SCRIB_PDZ_2): 4.538
